The record followed here is patent US20140178332A1 (published 2014).

By Kd is commonly meant a measure of binding affinity in units of concentration. In general, koff refers to the first-order rate constant of dissociation. Broadly, the kon is a measure of how fast the partners come together.

For experiment [1], the target named is T1, recombinant purified human IL-12 p70 (human, UniProt P29459 23-219).
T1 sequence 1: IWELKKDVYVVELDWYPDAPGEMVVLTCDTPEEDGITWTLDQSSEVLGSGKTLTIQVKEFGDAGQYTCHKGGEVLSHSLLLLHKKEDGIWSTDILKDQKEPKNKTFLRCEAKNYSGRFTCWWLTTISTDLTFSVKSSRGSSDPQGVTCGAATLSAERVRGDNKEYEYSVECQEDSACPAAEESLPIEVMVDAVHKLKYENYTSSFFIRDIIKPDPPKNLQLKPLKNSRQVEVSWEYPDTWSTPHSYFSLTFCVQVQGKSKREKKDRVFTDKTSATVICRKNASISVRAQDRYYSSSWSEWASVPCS
T1 sequence 2: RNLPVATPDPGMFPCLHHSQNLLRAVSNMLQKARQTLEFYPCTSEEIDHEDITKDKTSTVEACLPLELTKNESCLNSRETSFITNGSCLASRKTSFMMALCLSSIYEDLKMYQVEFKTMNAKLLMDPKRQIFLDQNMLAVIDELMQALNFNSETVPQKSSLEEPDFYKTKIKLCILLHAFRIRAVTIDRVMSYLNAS
The experiment in a line: cell-based or functional assay.

The target of experiment [2] is T2, recombinant purified mouse IL-12 (Peprotech) (mouse, UniProt P43432 23-335; P43431 23-215).
T2 construct: Bought reagent; also called mu IL-12; murine IL-12
T2 sequence (looked up) 1: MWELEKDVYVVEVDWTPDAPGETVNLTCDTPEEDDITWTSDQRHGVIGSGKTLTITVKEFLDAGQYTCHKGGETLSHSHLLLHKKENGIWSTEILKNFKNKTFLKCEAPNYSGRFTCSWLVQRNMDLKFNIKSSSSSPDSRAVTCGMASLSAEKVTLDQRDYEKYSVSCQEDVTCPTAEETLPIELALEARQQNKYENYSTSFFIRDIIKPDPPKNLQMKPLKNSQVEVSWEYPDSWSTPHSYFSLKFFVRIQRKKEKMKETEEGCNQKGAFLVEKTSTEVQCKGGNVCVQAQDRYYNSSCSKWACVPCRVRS
T2 sequence (looked up) 2: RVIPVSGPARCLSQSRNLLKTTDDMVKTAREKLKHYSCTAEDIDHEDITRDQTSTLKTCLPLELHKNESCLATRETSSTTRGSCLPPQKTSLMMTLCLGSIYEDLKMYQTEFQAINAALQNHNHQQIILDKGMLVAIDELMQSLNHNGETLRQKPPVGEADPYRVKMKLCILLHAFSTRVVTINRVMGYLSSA
Description: direct ELISA, plate coated with 5 ug/ml recombinant mouse IL-12. As to the method: To determine whether the ten monoclonal antibodies described above recognize murine IL-12, two ELISAs were set up. First, a direct ELISA was set up by directly coating ELISA plates with 5 ug/ml of recombinant purified mouse IL-12 (Peprotech). Murine-anti-human IL-12 p40 mAbs were prepared at various concentrations ranging from 3 to 200 ng/ml in PBS containing 0.1% BSA (Sigma, St. Louis, Mo.). 50 μl of each antibody dilution was added to the coated ELISA plate and incubated for 1 hour at room temperature. Wells were washed 3 times with PBS containing 0.05% Tween-20. Anti-mouse IgG-HRP antibody (R&D #HAF007, Minneapolis, Minn.) was diluted 1:2000 in PBS containing 0.1% BSA; 50 ul/well was added and the plates incubated for 1 hour at room temperature. Fifty microliters of TMB solution (Sigma # T0440, St. Louis, Mo.) was added to each well and incubated for 10 minutes at room temperature. The reaction was stopped by addition of 2N sulphuric acid. Plates were read spectrophotmetrically at a wavelength of 450 nm.

In experiment [3] the target is T1, recombinant purified human IL-12 p70. Description: SPR (Biacore), mAb captured on anti-mouse IgG Fc, IL-12 p70 as analyte. How it is done:
The BIACORE assay (Biacore, Inc, Piscataway, N.J.) determines the affinity of antibodies with kinetic measurements of on-, off-rate constants. Binding of antibodies to recombinant purified human IL-12 p70 or recombinant purified human IL-12 p40 were determined by surface plasmon resonance-based measurements with a Biacore® 3000 instrument (Biacore® AB, Uppsala, Sweden) using running HBS-EP (10 mM HEPES [pH 7.4], 150 mM NaCl, 3 mM EDTA, and 0.005% surfactant P20) at 25° C. All chemicals were obtained from Biacore® AB (Uppsala, Sweden) or otherwise from a different source as described in the text. Approximately 5000 RU of goat anti-mouse IgG, (Fcγ), fragment specific polyclonal antibody (Pierce Biotechnology Inc, Rockford, Ill.) diluted in 10 mM sodium acetate (pH 4.5) was directly immobilized across a CM5 research grade biosensor chip using a standard amine coupling kit according to manufacturer's instructions and procedures at 25 μg/ml. Unreacted moieties on the biosensor surface were blocked with ethanolamine. Modified carboxymethyl dextran surface in flowcell 2 and 4 was used as a reaction surface. Unmodified carboxymethyl dextran without goat anti-mouse IgG in flow cell 1 and 3 was used as the reference surface. For kinetic analysis, rate equations derived from the 1:1 Langmuir binding model were fitted simultaneously to association and dissociation phases of all eight injections (using global fit analysis) with the use of Biaevaluation 4.0.1 software. Purified antibodies were diluted in HEPES-buffered saline for capture across goat anti-mouse IgG specific reaction surfaces. Mouse antibodies to be captured as a ligand (25 μg/ml) were injected over reaction matrices at a flow rate of 5 μl/min. The association and dissociation rate constants, kₒₙ (unit M⁻¹ s⁻¹) and koff (unit s⁻¹) were determined under a continuous flow rate of 25 μl/min. Rate constants were derived by making kinetic binding measurements at ten different antigen concentrations ranging from 10-200 nM. The equilibrium dissociation constant (unit M) of the reaction between mouse antibodies and recombinant purified human IL-12 p70 or recombinant purified human IL-12 p40 was then calculated from the kinetic rate constants by the following formula: KD=koff/kₒₙ. Binding is recorded as a function of time and kinetic rate constants are calculated.
(Surface plasmon resonance follows binding to a sensor surface in real time, without labels.)

For experiment [4], the target named is T3, recombinant purified cyno IL-12 p70 (cynomolgus monkey).
T3 chain 1: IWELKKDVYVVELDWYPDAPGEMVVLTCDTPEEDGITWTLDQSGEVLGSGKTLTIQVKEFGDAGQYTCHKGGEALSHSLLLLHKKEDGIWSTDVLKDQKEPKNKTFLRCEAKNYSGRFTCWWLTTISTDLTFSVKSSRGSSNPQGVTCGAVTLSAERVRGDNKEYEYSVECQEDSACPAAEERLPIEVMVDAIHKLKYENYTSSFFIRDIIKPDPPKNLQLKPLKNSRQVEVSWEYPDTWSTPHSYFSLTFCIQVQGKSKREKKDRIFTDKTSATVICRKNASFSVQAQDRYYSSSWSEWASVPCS
T3 chain 2: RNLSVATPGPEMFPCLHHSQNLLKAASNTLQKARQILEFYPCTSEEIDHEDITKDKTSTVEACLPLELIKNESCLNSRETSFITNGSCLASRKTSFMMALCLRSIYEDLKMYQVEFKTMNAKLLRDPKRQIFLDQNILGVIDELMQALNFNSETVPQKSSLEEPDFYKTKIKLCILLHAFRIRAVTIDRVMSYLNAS
The experiment in a line: cell-based or functional assay.

B1: murine anti-human IL-12p40 monoclonal antibody 3A11 (antibody, V domains shown)
VH: EVQLQQSGADLEKPGASVKLSCTASGFNIKDTFMHWVKQRPEQGLEWIGRIDPANGHTKYDPKFQGKATITADTSSNTAYLQLSSLTSEDTAVYYCARWGQFGLLWNAMDYWGQGTSVTVSS
VL: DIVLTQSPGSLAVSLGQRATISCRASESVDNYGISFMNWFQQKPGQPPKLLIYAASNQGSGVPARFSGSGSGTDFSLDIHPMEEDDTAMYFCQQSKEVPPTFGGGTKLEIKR
notes: Murine mAb
Turning to B1, in experiment [1], the “Average IC50 (nM) Human IL-12, PHA blast IFN-γ assay” value stood at 3.4 nM. Further, in experiment [2], the binding result is recorded as “no binding (tested: 3 to 200 ng/ml mAb)”. For the same molecule, in experiment [3], the Kd came out at 1.2 nM, the dissociation rate constant (koff) was found to be 0.00019 s⁻¹ and the kon was 150000 M⁻¹ s⁻¹.

B2: murine anti-human IL-12p40 monoclonal antibody 7G3 (antibody, V domains shown)
VH: EVQLQQSGAEFVRSGASVKLSCTASGLNIKDYYIHWVKQRPEQVLDWIGWIDPENGYSEYAPRFQDKATMTADTSSNTAYLHLSSLTSEDTAVYYCNPGELARYFDYWGQGTTLTVSS
VL: DIVLSQSPATLSVTPGDSVSLSCRASQSISKNLHWYQQKSHESPRLLIKYTSQSISGIPSRFSGSGSGTDFTLSINSVETEDFGMYFCQQSISWPLTFGAGTKLELKR
notes: Murine mAb
Turning to B2, the “Average IC50 (nM) Cyno IL-12, PHA blast IFN-γ assay” value in experiment [4] was above 20 nM. Also, in experiment [1], the “Average IC50 (nM) Human IL-12, PHA blast IFN-γ assay” value is 0.047 nM. In experiment [2], the binding result was “no binding (tested: 3 to 200 ng/ml mAb)”. In addition, in experiment [3], the Kd came out at 0.27 nM, the koff was determined as 0.00028 s⁻¹ and the kon is 1.1e+06 M⁻¹ s⁻¹.

B3: murine anti-human IL-12p40 monoclonal antibody 1D4 (antibody, V domains shown)
VH: QVTLKESGPGILQPSQTLSLTCSFSGFSLRKSVMGVSWIRQPSGKGLEWLAHIYWDDDKYYNPSLKSRLTISKDPSRNQVFLKITSVDTADAATYYCTRRGIRSAMDYWGQGTSVTVSS
VL: SVVMTQTPKFLLVSAGDRVTITCKASQSVSNDVAWYQQKPGQSPKLLIYYASNRYTGVPDRFTGSGYGTDFTFIISTVRAEDLAVYFCQQDYNSPWTFGGGTKLEIKR
notes: Murine mAb purified from hybridoma supernatant
On to B3, for which the “Average IC50 (nM) Cyno IL-12, PHA blast IFN-γ assay” value in experiment [4] was determined as 0.078 nM. Moreover, in experiment [1], the “Average IC50 (nM) Human IL-12, PHA blast IFN-γ assay” value turned out to be 0.031 nM. Besides, the binding result in experiment [2] is recorded as “no binding (tested: 3 to 200 ng/ml mAb)”. Moreover, in experiment [3], the Kd worked out at 0.12 nM, the koff stood at 2.9e-05 s⁻¹ and the kon stood at 250000 M⁻¹ s⁻¹.

B4: murine anti-human IL-12p40 monoclonal antibody 1A6 (antibody, V domains shown)
VH: QVTLKESGPGILKPSQTLSLTCSFSGFSLSTSGMGVSWIRQPSGKGLEWLAHIWWDGDNYYNPSLKSQLTISKDTSRNQVFLRIATVDTADTATYYCARRTRVNYAMDYWGQGTSVTVSS
VL: SVVMTQTPKFLLVSAGDRVTITCKASQSVSNDVAWFQQKPGQSPKLLIYYASNRYTGVPDRFTGSGYGTDFTFTISTVQAEDLAVYFCQQDYNSPWTFGGGTKLEIKR
notes: Murine mAb
In the case of B4, the “Average IC50 (nM) Cyno IL-12, PHA blast IFN-γ assay” value in experiment [4] was determined as 0.044 nM. The “Average IC50 (nM) Human IL-12, PHA blast IFN-γ assay” value in experiment [1] worked out at 0.052 nM. Moreover, in experiment [2], the binding result is “no binding (tested: 3 to 200 ng/ml mAb)”. Also, in experiment [3], the Kd was found to be 0.23 nM, the koff was 3.5e-05 s⁻¹ and the kon worked out at 150000 M⁻¹ s⁻¹.

B5: murine anti-human IL-12p40 monoclonal antibody 1H6 (antibody, V domains shown)
VH: EVKLVESGGGLVQPGGSRKLSCAASGFTFSDYGMVWVRQAPGKGLEWVAYISSGSSTIHYADTMKGRFTISRDNPKNTLFLQMSSLRSEDTAMYYCARRHYYAMDYWGQGTSVTVSS
VL: SFVMTQTPKFLLVSAGDRVTITCKASQSVSNDVAWYQQKPGQSPKLLIYYASNRYTGVPDRFTGTGYGTDFTFTISTVQAEDLAVYFCQQDYTSPFTFGSGTKLEIKR
notes: Murine mAb
In the case of B5, in experiment [4], the “Average IC50 (nM) Cyno IL-12, PHA blast IFN-γ assay” value came to 1.6 nM. In experiment [1], the “Average IC50 (nM) Human IL-12, PHA blast IFN-γ assay” value is 0.69 nM. Further, the binding result in experiment [2] was “no binding (tested: 3 to 200 ng/ml mAb)”. Also, in experiment [3], the Kd stood at 0.25 nM, the koff came out at 9.9e-05 s⁻¹ and the kon was determined as 430000 M⁻¹ s⁻¹.

B6: murine anti-human IL-12p40 monoclonal antibody 5E8 (antibody, V domains shown)
VH: QIQLVQSGPELKKPGETVKISCKASGYSFTDYSMHWVKQAPGKGLKWMDWINTETGEPTYADDFKGRFAFSLETSASTAYLQINNLKNEDTATYFCSRRRYRAFDYWGQGTTLTVSS
VL: SIVMTQSPKFLLVSAGDRVTITCKASQSVSNDVAWYQQKLGQSPKLLIYYASNRYTGVPDRFTGSGYGTDFTFTINTVQAEDLAVYFCQQDYTSPYTFGGGTKLEIQR
notes: Murine mAb
Regarding B6, the “Average IC50 (nM) Human IL-12, PHA blast IFN-γ assay” value in experiment [1] was 12 nM. Further, the binding result in experiment [2] is on record as “no binding (tested: 3 to 200 ng/ml mAb)”. Moreover, in experiment [3], the Kd turned out to be 4 nM, the koff came out at 0.0023 s⁻¹ and the kon is 570000 M⁻¹ s⁻¹.

B7: murine anti-human IL-12p40 monoclonal antibody 4B4 (antibody, V domains shown)
VH: QVTLKESGPGILKPSQTLSLTCSLSGFSLSTSGMGVSWIRQPSGKGLEWLAHIWWDGDSYSNPSLRSRLTISRDTSRNQVFLRIATVDTADTATYYCARRTRVNYAMDYWGQGTSVTVSS
VL: SVVMTQTPKFLLVSAGDRVTMTCKASQSVSNDVAWFQQKPGQSPKLLIYYASNRYTGVPDRFTGSGYGTDFTFTISTVQAEDLAVYFCQQDYNSPWTFGGGTKLEIKR
notes: Murine mAb
In the case of B7, the “Average IC50 (nM) Cyno IL-12, PHA blast IFN-γ assay” value in experiment [4] was 0.028 nM. The “Average IC50 (nM) Human IL-12, PHA blast IFN-γ assay” value in experiment [1] worked out at 0.039 nM. Moreover, in experiment [2], the binding result is “no binding (tested: 3 to 200 ng/ml mAb)”. Moreover, in experiment [3], the Kd worked out at 0.1 nM, the koff stood at 1.4e-05 s⁻¹ and the kon turned out to be 130000 M⁻¹ s⁻¹.
